From IntAct's records for PubMed 31515488

B1: Protein boule-like (Homo sapiens), Q8N9W6 (parent)
chain: MQTDSLSPSPNPVSPVPLNNPTSAPRYGTVIPNRIFVGGIDFKTNESDLRKFFSQYGSVKEVKIVNDRAGVSKGYGFVTFETQEDAQKILQEAEKLNYKDKKLNIGPAIRKQQVGIPRSSIMPAAGTMYLTTSTGYPYTYHNGVAYFHTPEVTSVPPPWPSRSVCSSPVMVAQPIYQQPAYHYQATTQYLPGQWQWSVPQPSASSAPFLYLQPSEVIYQPVEIAQDGGCVPPPLSLMETSVPEPYSDHGVQATYHQVYAPSAITMPAPVMQPEPIKTVWSIHY
partner: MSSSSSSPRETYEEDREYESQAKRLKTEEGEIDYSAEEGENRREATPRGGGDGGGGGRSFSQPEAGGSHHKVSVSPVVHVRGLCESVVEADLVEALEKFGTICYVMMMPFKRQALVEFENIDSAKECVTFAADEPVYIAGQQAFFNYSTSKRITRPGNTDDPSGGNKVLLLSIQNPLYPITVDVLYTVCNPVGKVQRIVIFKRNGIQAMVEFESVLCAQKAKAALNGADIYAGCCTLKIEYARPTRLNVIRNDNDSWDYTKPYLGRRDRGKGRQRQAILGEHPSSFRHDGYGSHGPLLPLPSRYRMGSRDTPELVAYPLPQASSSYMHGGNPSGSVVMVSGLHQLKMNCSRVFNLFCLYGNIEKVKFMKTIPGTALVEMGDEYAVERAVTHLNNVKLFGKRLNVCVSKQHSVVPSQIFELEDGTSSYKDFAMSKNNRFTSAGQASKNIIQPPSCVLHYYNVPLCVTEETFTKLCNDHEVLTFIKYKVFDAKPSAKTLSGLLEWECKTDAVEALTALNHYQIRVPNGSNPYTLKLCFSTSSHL
B2: UPF0193 protein EVG1 (Homo sapiens), Q9BZE7 (parent)
chain: MASQKQMEVVTKGTGFRRRPKTITYTPGTCELLRVMMKESKLTNIQQRHIMDIMKRGDALPLQCSPTSSQRVLPSKQIASPIYLPPILAARPHLRPANMCQANGAYSREQFKPQATRDLEKEKQRLQNIFATGKDMEERKRKAPPARQKAPAPELDRFEELVKEIQERKEFLADMEALGQGKQYRGIILAEISQKLREMEDIDHRRSEELRKGLATT
B3: PDZ and LIM domain protein 5 (Homo sapiens), Q96HC4 (parent)
chain: MSNYSVSLVGPAPWGFRLQGGKDFNMPLTISSLKDGGKAAQANVRIGDVVLSIDGINAQGMTHLEAQNKIKGCTGSLNMTLQRASAAPKPEPVPVQKGEPKEVVKPVPITSPAVSKVTSTNNMAYNKAPRPFGSVSSPKVTSIPSPSSAFTPAHATTSSHASPSPVAAVTPPLFAASGLHANANLSADQSPSALSAGKTAVNVPRQPTVTSVCSETSQELAEGQRRGSQGDSKQQNGPPRKHIVERYTEFYHVPTHSDASKKRLIEDTEDWRPRTGTTQSRSFRILAQITGTEHLKESEADNTKKANNSQEPSPQLASSVASTRSMPESLDSPTSGRPGVTSLTAAAAFKPVGSTGVIKSPSWQRPNQGVPSTGRISNSATYSGSVAPANSALGQTQPSDQDTLVQRAEHIPAGKRTPMCAHCNQVIRGPFLVALGKSWHPEEFNCAHCKNTMAYIGFVEEKGALYCELCYEKFFAPECGRCQRKILGEVISALKQTWHVSCFVCVACGKPIRNNVFHLEDGEPYCETDYYALFGTICHGCEFPIEAGDMFLEALGYTWHDTCFVCSVCCESLEGQTFFSKKDKPLCKKHAHSVNF
B4: Protein phosphatase 1 regulatory inhibitor subunit 16B (Homo sapiens), Q96T49 (parent)
chain: MASHVDLLTELQLLEKVPTLERLRAAQKRRAQQLKKWAQYEQDLQHRKRKHERKRSTGGRRKKVSFEASVALLEASLRNDAEEVRYFLKNKVSPDLCNEDGLTALHQCCIDNFEEIVKLLLSHGANVNAKDNELWTPLHAAATCGHINLVKILVQYGADLLAVNSDGNMPYDLCEDEPTLDVIETCMAYQGITQEKINEMRVAPEQQMIADIHCMIAAGQDLDWIDAQGATLLHIAGANGYLRAAELLLDHGVRVDVKDWDGWEPLHAAAFWGQMQMAELLVSHGASLSARTSMDEMPIDLCEEEEFKVLLLELKHKHDVIMKSQLRHKSSLSRRTSSAGSRGKVVRRASLSDRTNLYRKEYEGEAILWQRSAAEDQRTSTYNGDIRETRTDQENKDPNPRLEKPVLLSEFPTKIPRGELDMPVENGLRAPVSAYQYALANGDVWKVHEVPDYSMAYGNPGVADATPPWSSYKEQSPQTLLELKRQRAAAKLLSHPFLSTHLGSSMARTGESSSEGKAPLIGGRTSPYSSNGTSVYYTVTSGDPPLLKFKAPIEEMEEKVHGCCRIS
B5: Methanethiol oxidase (Homo sapiens), Q13228 (parent)
chain: MATKCGNCGPGYSTPLEAMKGPREEIVYLPCIYRNTGTEAPDYLATVDVDPKSPQYCQVIHRLPMPNLKDELHHSGWNTCSSCFGDSTKSRTKLVLPSLISSRIYVVDVGSEPRAPKLHKVIEPKDIHAKCELAFLHTSHCLASGEVMISSLGDVKGNGKGGFVLLDGETFEVKGTWERPGGAAPLGYDFWYQPRHNVMISTEWAAPNVLRDGFNPADVEAGLYGSHLYVWDWQRHEIVQTLSLKDGLIPLEIRFLHNPDAAQGFVGCALSSTIQRFYKNEGGTWSVEKVIQVPPKKVKGWLLPEMPGLITDILLSLDDRFLYFSNWLHGDLRQYDISDPQRPRLTGQLFLGGSIVKGGPVQVLEDEELKSQPEPLVVKGKRVAGGPQMIQLSLDGKRLYITTSLYSAWDKQFYPDLIREGSVMLQVDVDTVKGGLKLNPNFLVDFGKEPLGPALAHELRYPGGDCSSDIWI
partner: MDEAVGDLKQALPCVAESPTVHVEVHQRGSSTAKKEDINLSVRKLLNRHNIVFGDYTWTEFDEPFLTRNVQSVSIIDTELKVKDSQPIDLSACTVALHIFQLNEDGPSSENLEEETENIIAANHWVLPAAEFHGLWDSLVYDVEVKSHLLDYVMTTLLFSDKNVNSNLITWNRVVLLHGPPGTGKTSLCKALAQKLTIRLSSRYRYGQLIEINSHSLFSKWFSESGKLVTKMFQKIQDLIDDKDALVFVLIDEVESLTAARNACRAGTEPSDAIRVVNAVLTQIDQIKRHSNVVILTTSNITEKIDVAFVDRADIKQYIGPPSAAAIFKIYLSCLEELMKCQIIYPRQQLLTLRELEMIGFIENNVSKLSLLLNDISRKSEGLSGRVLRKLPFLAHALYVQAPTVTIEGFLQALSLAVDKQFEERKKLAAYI

Variants of: B1
Conditions: with hnrll_human HNRNPLL
In the case of M270I, the “effect of a mutation on the interaction” value is reported as “with no effect”.
For S9Y, the “effect of a mutation on the interaction” value was “with no effect”.
In the case of V78I, the “effect of a mutation on the interaction” value is reported as “with no effect”.

Variants of: B2
Conditions: with ccdb1_human CCNDBP1, O95273
Chain of ccdb1_human CCNDBP1, O95273 (O95273 whole entry): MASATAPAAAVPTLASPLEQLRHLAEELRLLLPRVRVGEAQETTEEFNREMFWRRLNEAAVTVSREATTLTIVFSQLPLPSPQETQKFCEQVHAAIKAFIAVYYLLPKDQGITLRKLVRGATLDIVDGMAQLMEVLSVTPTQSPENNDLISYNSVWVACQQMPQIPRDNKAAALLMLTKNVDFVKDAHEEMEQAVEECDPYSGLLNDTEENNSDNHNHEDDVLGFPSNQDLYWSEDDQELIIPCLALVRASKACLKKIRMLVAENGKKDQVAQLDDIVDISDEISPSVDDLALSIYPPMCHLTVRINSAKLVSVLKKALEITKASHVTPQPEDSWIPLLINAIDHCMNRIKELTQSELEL
With M136L the “effect of a mutation on the interaction” value was “with no effect”.

Variants of: B3
Conditions: with cc136_human CCDC136, Q96JN2
Chain of cc136_human CCDC136, Q96JN2 (Q96JN2 whole entry): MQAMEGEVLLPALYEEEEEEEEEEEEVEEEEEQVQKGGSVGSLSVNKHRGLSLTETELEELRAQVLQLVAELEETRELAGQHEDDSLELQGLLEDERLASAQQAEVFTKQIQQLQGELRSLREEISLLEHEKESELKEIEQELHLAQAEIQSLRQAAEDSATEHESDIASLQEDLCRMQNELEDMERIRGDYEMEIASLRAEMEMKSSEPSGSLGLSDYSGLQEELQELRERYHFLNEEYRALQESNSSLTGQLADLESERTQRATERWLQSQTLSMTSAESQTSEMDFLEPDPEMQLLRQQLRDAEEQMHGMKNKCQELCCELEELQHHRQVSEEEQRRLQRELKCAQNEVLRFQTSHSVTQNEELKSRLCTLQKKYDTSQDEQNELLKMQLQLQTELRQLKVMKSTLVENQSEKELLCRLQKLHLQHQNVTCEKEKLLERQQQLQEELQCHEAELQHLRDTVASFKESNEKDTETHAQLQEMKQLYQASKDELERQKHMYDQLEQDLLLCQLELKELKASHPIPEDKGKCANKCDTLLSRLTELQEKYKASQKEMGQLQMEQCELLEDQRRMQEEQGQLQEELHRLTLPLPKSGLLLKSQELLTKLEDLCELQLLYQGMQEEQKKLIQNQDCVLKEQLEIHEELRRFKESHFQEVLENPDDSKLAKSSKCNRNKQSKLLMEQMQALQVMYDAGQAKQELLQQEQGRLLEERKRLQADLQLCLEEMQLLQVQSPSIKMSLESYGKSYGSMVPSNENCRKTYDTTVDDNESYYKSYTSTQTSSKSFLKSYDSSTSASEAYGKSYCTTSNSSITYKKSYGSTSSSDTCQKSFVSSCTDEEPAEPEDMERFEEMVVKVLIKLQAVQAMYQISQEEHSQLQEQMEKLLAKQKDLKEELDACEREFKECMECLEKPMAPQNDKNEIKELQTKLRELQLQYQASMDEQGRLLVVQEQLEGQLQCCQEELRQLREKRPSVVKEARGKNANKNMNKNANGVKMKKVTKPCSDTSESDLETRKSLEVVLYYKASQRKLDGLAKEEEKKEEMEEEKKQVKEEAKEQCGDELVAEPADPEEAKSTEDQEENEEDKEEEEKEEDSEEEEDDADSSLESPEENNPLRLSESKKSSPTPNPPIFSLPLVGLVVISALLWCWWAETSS
For S136F, the “effect of a mutation on the interaction” value was “with no effect”.
In the case of P388S, the “effect of a mutation on the interaction” value is reported as “with no effect”.

Variants of: B3
Conditions: with coil_human COIL
With P388S the “effect of a mutation on the interaction” value was “with no effect”.

Variants of: B4
Conditions: with crx_human CRX
In the case of P519S, the “effect of a mutation on the interaction” value is reported as “with no effect”.

Variants of: B4
Conditions: with ikzf3_human IKZF3, Q9UKT9
Chain of ikzf3_human IKZF3, Q9UKT9 (Q9UKT9 whole entry): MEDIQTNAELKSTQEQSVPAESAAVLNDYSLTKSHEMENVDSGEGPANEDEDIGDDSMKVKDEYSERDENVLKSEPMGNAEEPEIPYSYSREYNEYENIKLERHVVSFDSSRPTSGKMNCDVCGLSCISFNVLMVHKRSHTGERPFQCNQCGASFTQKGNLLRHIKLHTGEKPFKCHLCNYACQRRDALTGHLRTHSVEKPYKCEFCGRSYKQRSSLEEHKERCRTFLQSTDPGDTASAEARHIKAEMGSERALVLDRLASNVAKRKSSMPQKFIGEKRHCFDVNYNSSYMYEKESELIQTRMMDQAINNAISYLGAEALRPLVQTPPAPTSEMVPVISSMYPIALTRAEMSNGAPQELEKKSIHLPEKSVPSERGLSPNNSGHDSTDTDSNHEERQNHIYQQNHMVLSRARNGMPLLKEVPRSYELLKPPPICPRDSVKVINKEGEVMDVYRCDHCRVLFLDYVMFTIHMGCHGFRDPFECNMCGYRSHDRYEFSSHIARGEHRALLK
In the case of P519S, the “effect of a mutation on the interaction” value is reported as “with no effect”.

Variants of: B4
Conditions: with sf3b4_human SF3B4, Q15427
Chain of sf3b4_human SF3B4, Q15427 (Q15427 whole entry): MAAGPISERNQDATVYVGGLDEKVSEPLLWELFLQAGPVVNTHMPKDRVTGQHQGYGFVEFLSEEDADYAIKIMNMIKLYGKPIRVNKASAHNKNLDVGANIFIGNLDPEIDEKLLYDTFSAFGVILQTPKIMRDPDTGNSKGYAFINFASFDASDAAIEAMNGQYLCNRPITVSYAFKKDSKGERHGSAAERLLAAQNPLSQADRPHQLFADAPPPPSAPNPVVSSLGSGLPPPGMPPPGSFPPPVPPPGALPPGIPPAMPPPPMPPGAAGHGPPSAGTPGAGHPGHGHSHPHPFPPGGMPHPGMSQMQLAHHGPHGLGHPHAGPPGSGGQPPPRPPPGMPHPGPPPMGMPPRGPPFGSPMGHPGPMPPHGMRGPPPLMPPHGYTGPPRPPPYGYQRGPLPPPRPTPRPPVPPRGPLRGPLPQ
P519S was tested, and the “effect of a mutation on the interaction” value was “with no effect”.

Variants of: B5
Conditions: with pch2_human TRIP13, Q15645
With R211Q the “effect of a mutation on the interaction” value was “with no effect”.
